Entries after “also recorded” stand apart in the source; their conditions may differ.
Key:
[1] = target: T1, amyloid-beta (Amyloid Beta (1-40)) (Homo sapiens, UniProt P05067); assay: In vitro ligand binding assay (ELISA), immobilized amyloid-beta; conditions: ligand 5 micrograms per well; dilutions of initial fusion protein solution; FIG. 7
T1 construct: Amyloid Beta (1-40) from Biosource; purchased Biosource
Method: For example, the fusion protein may be used in a binding assay to identify potential ligands that bind to the non-immunoglobulin protein. In one example embodiment of such a binding assay, a known ligand may coated onto a solid substrate (e.g., Maxisorb plates) at a biologically relevant concentration (e.g., about 5 micrograms per well), where each well contains a total volume of about 100 microliters (μL). The plates may be incubated at 4° C. overnight to allow the ligand to bind to the substrate. Alternatively, shorter incubation periods at higher temperature (e.g., room temperature) may be used. After a period of time to allow for the ligand to bind to the substrate, the assay wells may be aspirated and a blocking buffer (e.g., 1% BSA in 50 mM imidizole buffer, pH 7.2) may be added to block nonspecific binding. […] The fusion protein bound to the immobilized ligand may be detected in a variety of ways. […] The bound complex may be detected by adding a substrate for the secondary antibody complex, e.g., the alkaline phosphatase substrate, para-nitrophenylphosphate (PNPP), and measuring conversion of PNPP to para-nitrophenol (PNP) as an increase in absorbance at 405 nm. […] In the absence of ligand (i.e., coating with only BSA) there was no increase in absorbance. The binding assay of the present invention may be used to quantify ligand binding. […]

[2] = test system: Fc receptor
Method: Fc receptor activation was measured by measuring TNF-α secretion from THP-1 cells that express the Fc receptor. […] Fc stimulation results in TNF-α secretion. The amount of TNF-α was measured by an Enzyme Linked Immunoabsorbent Assay (ELISA).
Thus, in this assay, the myeloid cell line, THP-1 (ATTC #TIB-202) was maintained in RPMI-1640 media supplemented with 10% fetal bovine serum per ATCC instructions. […] The amount of TNF-alpha secreted by the THP-1 cells was measured in supernatants collected from 24 hours cultures of cells in the treated wells using a commercially available TNF ELISA kit (R&D Systems, Minneapolis, Minn. #DTA00C) per instructions.

[3] = Pharmacokinetic profile of TTP-4000 after IV injection; format: in vivo, monkeys; conditions: single IV bolus 5 mg/kg; plasma; once TTP-4000 has saturated its ligands; 2 animals; FIG. 11
Method: Following collection, the tubes were placed on wet ice (maximum 30 minutes) until centrifugation under refrigeration (at 2 to 8° C.) at 1500×g for 15 minutes. Each harvested plasma sample was then stored frozen (−70° C.±10° C.) until assayed for RAGE polypeptide using an ELISA at various time-points following the injection, as described in Example 6.
In FIG. 11 each curve represents a different animal under the same experimental conditions.
Initially, 50 uL of the RAGE specific monoclonal antibody 1HB1011 at a concentration of 10 ug/mL in 1×PBS pH 7.3 is coated on plates via overnight incubation. When ready for use, plates are washed three times with 300 uL of 1× Imidazole-Tween wash buffer and blocked with 1% BSA. […] The samples are allowed to incubate at room temperature for one hour. After incubation, the plates are plates are washed three times. A Goat Anti-human IgG1 1 (Sigma A3312) AP conjugate in 1×PBS with 1% BSA is added and allowed to incubate at room temperature for 1 hour. The plates are washed three times. Color was elucidated with paranitrophenylphosphate.

[4] = test system: S100b/RAGE-induced production of TNF-α in THP-1 cells; assay: Inhibition of S100b/RAGE-induced production of TNF-α in THP-1 cells; format: cell-based; conditions: 10 μg protein, FIG. 10
Source text: One embodiment of a use of a RAGE fusion protein of the present invention to modulate expression of the cellular effector TNF-α is shown in FIG. 10. THP-1 myeloid cells may be cultured in RPMI-1640 media supplemented with 10% FBS and induced to secrete TNF-α via stimulation of RAGE with S100b. When such stimulation occurs in the presence of a RAGE fusion protein of the invention, induction of TNF-α by S100b binding to RAGE may be inhibited.
Previous work has shown that the myeloid THP-1 cells may secrete TNF-α in response to RAGE ligands. In this assay, THP-1 cells were cultured in RPMI-1640 media supplemented with 10% FBS using a protocol provided by ATCC. […] The amount of TNF-α secreted by the THP-1 cells was measured 24 hours after the addition of the proteins to the cell culture using a commercially available ELISA kit for TNF-α (R&D Systems, Minneapolis, Minn.).

T1 sequence (P05067 672-711 limits assumed): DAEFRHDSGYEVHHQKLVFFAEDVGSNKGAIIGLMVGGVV

B1: TTP-4000: RAGE fusion protein: V and C1 domains of human RAGE (amino acids 1-251) linked to hinge-less CH2 and CH3 of human IgG1; SEQ ID NO: 16/18 (protein)
chain 1: MAAGTAVGAWVLVLSLWGAVVGAQNITARIGEPLVLKCKGAPKKPPQRLEWKLNTGRTEAWKVLSPQGGGPWDSVARVLPNGSLFLPAVGIQDEGIFRCQAMNRNGKETKSNYRVRVYQIPGKPEIVDSASELTAGVPNKVGTCVSEGSYPAGTLSWHLDGKPLVPNEKGVSVKEQTRRHPETGLFTLQSELMVTPARGGDPRPTFSCSFSPGLPRHRALRTAPIQPRVWEPVPLEEVQLVVEPEGGAVAPPSVFLFPPKPKDTLMISRTPEVTCVVVDVSHEDPEVKFNWYVDGVEVHNAKTKPREEQYNSTYRVVSVLTVLHQDWLNGKEYKCKVSNKALPAPIEKTISKAKGQPREPQVYTLPPSRDELTKNQVSLTCLVKGFYPSDIAVEWESNGQPENNYKTTPPVLDSDGSFFLYSKLTVDKSRWQQGNVFSCSVMHEALHNHYTQKSLSLSPGK
chain 2: ENITARIGEPLVLKCKGAPKKPPQRLEWKLNTGRTEAWKVLSPQGGGPWDSVARVLPNGSLFLPAVGIQDEGIFRCQAMNRNGKETKSNYRVRVYQIPGKPEIVDSASELTAGVPNKVGTCVSEGSYPAGTLSWHLDGKPLVPNEKGVSVKEQTRRHPETGLFTLQSELMVTPARGGDPRPTFSCSFSPGLPRHRALRTAPIQPRVWEPVPLEEVQLVVEPEGGAVAPPSVFLFPPKPKDTLMISRTPEVTCVVVDVSHEDPEVKFNWYVDGVEVHNAKTKPREEQYNSTYRVVSVLTVLHQDWLNGKEYKCKVSNKALPAPIEKTISKAKGQPREPQVYTLPPSRDELTKNQVSLTCLVKGFYPSDIAVEWESNGQPENNYKTTPPVLDSDGSFFLYSKLTVDKSRWQQGNVFSCSVMHEALHNHYTQKSLSLSPGK
modifications: synthetic four domain RAGE-Fc IgG fusion protein; synthetic four domain RAGE-Fc IgG fusion protein having signal sequence removed
Q: With B1 as the molecule, how does the “binding to immobilized amyloid-beta (increase in absorbance at 405 nm)” value [1] read?
A: Its value is “able to bind; also recorded: specifically interact”.

Q: And the “stimulation of TNF-α release from cells, in words” value [2]?
A: The value was “does not stimulate TNF-α release”.

Q: And the terminal half-life [3]?
A: Its terminal half-life is “greater than 300 hours”.

Q: And the “reduction of S100b induction of TNF-α” value ([4]; S100b 0.1 mg/ml FAC, TNF-α ELISA at 24 hours)?
A: Its value is ~70%.

Q: And the “S100b induction of TNF-α, result in words” value ([4]; S100b 0.1 mg/ml)?
A: The value was “at least as effective”.

— patent publication US20110110945A1, “Immunoglobulin Fusion Proteins and Methods of Making” (TransTech Pharma, Inc., priority 2007, published 2011)
